Substitutions are numbered along the chain they refer to. Names and notes keep the numbering of the source. Bridge positions count the residues as written; N and C are the ends. * marks the point of attachment. Biotin = O=C1N[C@H]2[C@H](CS[C@H]2CCCCC(=O)*)N1
T1: recombinant human LRP1 cluster II (R&D Systems, amino acids 786-1165, with C-terminal Fc tag) (human, UniProt Q07954 786-1165)
T1 construct: range 786-1165; Bought from R&D Systems; coated on plates; also called LRP1-C2; not shown: C-terminal Fc tag of the bought protein
T1 sequence (looked up): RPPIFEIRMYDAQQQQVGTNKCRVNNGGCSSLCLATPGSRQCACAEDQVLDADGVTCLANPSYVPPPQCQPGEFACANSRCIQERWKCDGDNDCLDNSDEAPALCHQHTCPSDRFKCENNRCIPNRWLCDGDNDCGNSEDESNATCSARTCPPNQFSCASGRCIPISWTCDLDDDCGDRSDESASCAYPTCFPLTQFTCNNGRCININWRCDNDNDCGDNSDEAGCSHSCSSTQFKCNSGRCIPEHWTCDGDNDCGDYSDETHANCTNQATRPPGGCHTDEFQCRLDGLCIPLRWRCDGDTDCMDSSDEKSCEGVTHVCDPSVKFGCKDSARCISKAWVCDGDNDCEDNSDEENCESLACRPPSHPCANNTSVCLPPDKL

B1: mature RAP (full-length receptor-associated protein) (ligand)
chain: YSREKNQPKPSPKRESGEEFRMEKLNQLWEKAQRLHLPPVRLAELHADLKIQERDELAWKKLKLDGLDEDGEKEARLIRNLNVILAKYGLDGKKDARQVTSNSLSGTQEDGLDDPRLEKLWHKAKTSGKFSGEELDKLWREFLHHKEKVHEYNVLLETLSRTEEIHENVISPSDLSDIKGSVLHSRHTELKEKLRSINQGLDRLRRVSHQGYSTEAEFEEPRVIDLWDLAQSANLTDKELEAFREELKHFEAKIEKHNHYQKQLEIAHEKLRHAESVGDGERVSRSREKHALLEGRTKELGYTVKKHLQDLSGRISRARHNEL
notes: also called full-length RAP
B2: RAP d3 K270E (ligand)
chain: GLDRLRRVSHQGYSTEAEFEEPRVIDLWDLAQSANLTDKELEAFREELKHFEAKIEKHNHYQKQLEIAHEELRHAESVGDGERVSRSREKHALLEGRTKELGYTVKKHLQDLSGRISRARHNEL
notes: also called RAP K270E
B3: RAP d3 E251K (ligand)
chain: B2 chain with E52K, E71K
notes: also called RAP E251K
B4: MegaRAP1 d3 A256K (ligand)
chain: B2 chain with S14T, E18K, H50Y, E52K
notes: also called MegaRAP1 A256K
B5: RAP d3 E217K (ligand)
chain: B2 chain with E18K, E71K
notes: also called RAP E217K
B6: RAP d3 H249Y (ligand)
chain: B2 chain with H50Y, E71K
notes: also called RAP H249Y
B7: RAP d3 K256A, K270E (ligand)
chain: B2 chain with K57A
notes: also called RAP K256A, K270E
B8: LRP2 CR89 (receptor)
chain: not shown
notes: domain: CR89
B9: MegaRAP1 d3 K217E (ligand)
chain: B2 chain with S14T, H50Y, E52K, K57A
notes: also called MegaRAP1 K217E
B10: MegaRAP1 d3 T213S (ligand)
chain: B2 chain with E18K, H50Y, E52K, K57A
notes: also called MegaRAP1 T213S
B11: RAP d3 E251K, K270E (ligand)
chain: B2 chain with E52K
notes: also called RAP E251K, K270E
B12: MegaRAP1 d3 Y249H (ligand)
chain: B2 chain with S14T, E18K, E52K, K57A
notes: also called MegaRAP1 Y249H
B13: MegaRAP1 d3 (ligand)
chain: B2 chain with S14T, E18K, H50Y, E52K, K57A
notes: also called RAPv2A d3; RAP v2
B14: RAP d3 E251K, K256A, K270E (ligand)
chain: B2 chain with E52K, K57A
notes: also called RAP E251K, K256A, K270E
B15: MegaRAP1 d3 K251E (ligand)
chain: B2 chain with S14T, E18K, H50Y, K57A
notes: also called MegaRAP1 K251E
B16: MegaRAP1 d3 A256K, E270K (ligand)
chain: B2 chain with S14T, E18K, H50Y, E52K, E71K
notes: also called MegaRAP1 A256K, E270K
B17: MegaRAP1 d3 K251E, E270K (ligand)
chain: B2 chain with S14T, E18K, H50Y, K57A, E71K
notes: also called MegaRAP1 K251E, E270K
B18: MegaRAP1 d3 E270K (ligand)
chain: B2 chain with S14T, E18K, H50Y, E52K, K57A, E71K
notes: also called MegaRAP1 E270K
B19: LRP1 CR3-5 (receptor)
chain: not shown
notes: domain: CR3-5; also called LRP1 CR domains
B20: mRAP-8c (peptide)
peptide: GGSGGCGKHFEAKIEKHNHYQKQLEIAHEKLRHAESVGDGERVSRSREKHALLEGRTKELGYTVKKHLQDGC
modifications: N-terminal biotin (biotin-GGSGG)
notes: Cysteines at both ends are meant for cyclization by a disulfide bond
B21: mRAP-14c (peptide)
peptide: Biotin-GGSGGCEAKIEKHNHYQKQLEIAHEKLRHAESVGDGERVSRSREKHALLEGRTKELGYTVKKHGC
modifications: disulfide 6-65
notes: as for B20
B22: RAP d3 (ligand)
chain: B2 chain with E71K
notes: also called recombinant RAP d3

target: T1, recombinant human LRP1 cluster II (R&D …); experiment: solid phase competition, inhibition of 2 nM RAP d3 binding to immobilized LRP1-C2
Description: (§1) Control wells contained no added inhibitor. Wells were washed with TBS supplemented with 5 mM CaCl₂ and 0.05% Tween-20. […] Excess HRP conjugate was removed and wells washed. Color was developed using TMB reagents (BioRad, Hercules, Calif.).

Binder | EC50 [nM]
B1 | 0.8

target: T1, recombinant human LRP1 cluster II (R&D …); experiment: solid phase competition, inhibitor preincubated with immobilized LRP1-C2, then 2 nM RAP d3
Description: as §1

Binder | EC50 [nM]
B1 | 0.5

target: B8; experiment: binding titration on LRP2 CR89, absorbance against nM of ligand
Sequence of LRP2 CR89 (P98164 1025-1102 limits assumed): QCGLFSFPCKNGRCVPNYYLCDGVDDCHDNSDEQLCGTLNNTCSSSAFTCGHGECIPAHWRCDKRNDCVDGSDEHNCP

Binder | binding result
B2 | no binding (tested: 100 nM)
B3 | no binding (tested: 100 nM)
B4 | no binding (tested: 100 nM)
B5 | no binding (tested: 100 nM)
B6 | no binding (tested: 100 nM)
B7 | no binding (tested: 100 nM)

target: B22; experiment: as above

Binder | binding result
B8 | no binding (tested: 100 nM)

target: T1, recombinant human LRP1 cluster II (R&D …); experiment: solid phase competition, EC50 against that of the mRAPc monomer
Description: as §1

Binder | relative to monomer [fold]
B1 | 36

target: B19; experiment: binding titration on LRP1 CR3-5, absorbance against nM of ligand

Binder | binding result
B2 | no binding (tested: 100 nM)
B4 | no binding (tested: 100 nM)
B9 | no binding (tested: 100 nM)
B10 | no binding (tested: 100 nM)
B7 | no binding (tested: 100 nM)
B11 | no binding (tested: 100 nM)
B12 | no binding (tested: 100 nM)
B13 | no binding (tested: 100 nM)
B14 | no binding (tested: 100 nM)
B15 | no binding (tested: 100 nM)

target: B8; experiment: solid-phase binding (OD), single-site non-linear regression

Binder | Kd [nM]
B9 | 25
B16 | 72
B10 | 19
B17 | 153
B18 | 8
B13 | 38
B14 | 114

target: B19; experiment: as above

Binder | Kd [nM]
B3 | 7
B5 | 9
B16 | 4
B6 | 28
B18 | 114

target: B22; experiment: as above

Binder | Kd [nM]
B19 | 16

target: T1, recombinant human LRP1 cluster II (R&D …); experiment: solid phase binding assay, LRP1 cluster II-Fc coated on plate
Description: as §1

Binder | Kd [nM]
B20 | ~4
B21 | ~21

target: T1, recombinant human LRP1 cluster II (R&D …); experiment: solid phase competition, EC50 against that of the mRAPc monomer; remark: another data set of the same source
Description: as §1

Binder | relative to monomer [fold]
B1 | 40

target: B8; experiment: solid-phase binding, OD at highest concentration against highest OD of all ligands

Binder | % max (percent of maximum binding) [%]
B22 | 5
B2 | 2
B3 | 5
B4 | 2
B9 | 88
B5 | 5
B16 | 73
B10 | 94
B6 | 2
B7 | 3
B17 | 16
B18 | 100
B11 | 2
B12 | 35
B13 | 88
B14 | 40
B15 | 11

target: B19; experiment: as above

Binder | % max (percent of maximum binding) [%]
B22 | 76
B2 | 4
B3 | 100
B4 | 6
B9 | 2
B5 | 91
B16 | 93
B10 | 2
B6 | 90
B7 | 2
B17 | 16
B18 | 85
B11 | 4
B12 | 2
B13 | 4
B14 | 2
B15 | 2
